Reference: the supplement of paper PMC10126150
± gives the standard deviation of the averaged measurements.
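Note: ATP exposure 15 min at 22 °C before imaging.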

These sequences were tested on ATP (assay: switch fluorescence ratio, 500 uM ATP over buffer (Cy3 cluster intensity, sum of 5 cycles each) (fold (ratio)); higher = stronger signal-on switching upon ATP binding; sequences stand for … in TCGTCGGCAGCGTCAGATGTGTATAAGAGACAGTTTTTTTTTTTTTTTTTTTTTTTTT…TC). Settings: aptamer strand: ATP DNA aptamer (quencher-CACCTGGGGGAGTATTGCGGAGGAAGG + anchor), 100 nM annealed; ATP concentration: 500 uM.
How it was run: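 Cy3-labelled switching-strand clusters on a modified Illumina MiSeq flow-cell were annealed to 100 nM quencher-labelled ATP aptamer and imaged first in selection buffer, then after 15 min with 500 uM ATP at 22 °C. NaOH stripping and re-annealing separated each of five buffer/ATP cycles, and clusters outside 100-1000 RFU were excluded. The fluorescence ratio sums target-cycle Cy3 intensity over buffer-cycle Cy3 intensity per cluster and averages it per switch-domain sequence.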
With TTTGTGGCTG the switch fluorescence ratio was 0.986 ± 0.037.
With TTCAATACCG the switch fluorescence ratio was 1.09 ± 0.025.
With AAGAAAAATT the switch fluorescence ratio was 0.9725 ± 0.0048.
GGCCGAGCTC gave a switch fluorescence ratio of 1.012 ± 0.0085.
CGTCTTACGT gave a switch fluorescence ratio of 1.03 ± 0.051.
ATCTTTGCTA gave a switch fluorescence ratio of 1 ± 0.036.
In the case of TATCGGGACT, the switch fluorescence ratio is reported as 0.9751 ± 0.006.
Work on CGGGCTGGCA yielded a switch fluorescence ratio of 1.004 ± 0.01.
TTCGGCGCTG was tested, and the switch fluorescence ratio was 1.03 ± 0.074.
GTTTGTACCT was tested, and the switch fluorescence ratio was 1.13 ± 0.1.
In the case of TGGGTTAAGA, the switch fluorescence ratio is reported as 1.01 ± 0.034.
In the case of GTGGTAGGGA, the switch fluorescence ratio is reported as 0.98 ± 0.019.
Sequence CAAACGGGGT has a switch fluorescence ratio of 1.01 ± 0.024.
With ACATTTTGGT the switch fluorescence ratio was 0.995 ± 0.03.
For TTCGGGGTGG, the switch fluorescence ratio was 0.9976 ± 0.0066.
CATAATAC showed a switch fluorescence ratio of 1.82 ± 0.4.
Sequence CTTTGATTTT has a switch fluorescence ratio of 1.01 ± 0.019.
In the case of TCAGCATGTC, the switch fluorescence ratio is reported as 1.27 ± 0.036.
TGGGGGAAAC showed a switch fluorescence ratio of 1.01 ± 0.032.
AAGGGGGGTA gave a switch fluorescence ratio of 0.997 ± 0.037.
AAGGGCGCCC showed a switch fluorescence ratio of 1.14 ± 0.18.
For GCGATTGTAA, the switch fluorescence ratio was 0.985 ± 0.024.
Work on CAGGGGAGGT yielded a switch fluorescence ratio of 1.02 ± 0.014.
Work on AAGGGCGGGT yielded a switch fluorescence ratio of 1.03 ± 0.014.
For ACTGAAGCAT, the switch fluorescence ratio was 1.17 ± 0.021.
Work on AACGAAAAGT yielded a switch fluorescence ratio of 0.996 ± 0.012.
CATTCGTAGG showed a switch fluorescence ratio of 0.965 ± 0.042.
GCTACCTTTG showed a switch fluorescence ratio of 1.01 ± 0.014.
TGGGAGGCGT showed a switch fluorescence ratio of 0.992 ± 0.02.
Work on TGGTTTACTC yielded a switch fluorescence ratio of 1.14 ± 0.18.
Work on GGCGAAGTGC yielded a switch fluorescence ratio of 1.03 ± 0.013.
Sequence TCACATTATA has a switch fluorescence ratio of 1.009 ± 0.0078.
In the case of TTCAGTTCGT, the switch fluorescence ratio is reported as 1.008 ± 0.0089.
Sequence CCTGGTACTG has a switch fluorescence ratio of 1.05 ± 0.015.
With TTTTCTATCT the switch fluorescence ratio was 1.06 ± 0.057.
In the case of TATATCGGGG, the switch fluorescence ratio is reported as 0.992 ± 0.03.
GCCGGGGTGC gave a switch fluorescence ratio of 1.06 ± 0.028.
CCGGGGTACA gave a switch fluorescence ratio of 1.17 ± 0.17.
Work on GATCTGGGTT yielded a switch fluorescence ratio of 0.994 ± 0.031.
CACCATTAGT gave a switch fluorescence ratio of 0.9802 ± 0.0079.
For GAATTTTTGG, the switch fluorescence ratio was 0.997 ± 0.017.
Sequence GGGGATTGGA has a switch fluorescence ratio of 0.979 ± 0.031.
For TTTGGGTTTC, the switch fluorescence ratio was 0.977 ± 0.017.
TTTTGCCTAT was tested, and the switch fluorescence ratio was 1 ± 0.025.
Sequence CCACGCCCGG has a switch fluorescence ratio of 1.15 ± 0.099.
AACGCGTGGT showed a switch fluorescence ratio of 1.01 ± 0.02.
GGGTAATGTG gave a switch fluorescence ratio of 0.982 ± 0.029.
ATGGGGATGA showed a switch fluorescence ratio of 0.9776 ± 0.004.
Sequence AATCGGTTTG has a switch fluorescence ratio of 0.987 ± 0.029.
Work on TGCCGGCGCT yielded a switch fluorescence ratio of 0.989 ± 0.038.
For AGAGGTCTGT, the switch fluorescence ratio was 0.986 ± 0.0056.
Work on GGGAAGCATG yielded a switch fluorescence ratio of 1.02 ± 0.022.
With GGGAAGTATG the switch fluorescence ratio was 1 ± 0.057.
Work on GTTTGGGGGT yielded a switch fluorescence ratio of 1.04 ± 0.12.
For CGTTTTTAAG, the switch fluorescence ratio was 0.982 ± 0.0052.
Sequence TGTGTGTTGA has a switch fluorescence ratio of 1.023 ± 0.0026.
TTCGTTTCGT showed a switch fluorescence ratio of 0.995 ± 0.014.
AGTCGGGGGG showed a switch fluorescence ratio of 0.989 ± 0.021.
TGGGAAATCA gave a switch fluorescence ratio of 0.993 ± 0.048.
GGGAGTGTGG was tested, and the switch fluorescence ratio was 1.001 ± 0.0062.
Sequence CGGACTGGGC has a switch fluorescence ratio of 0.959 ± 0.051.
With ACAAGTTGGA the switch fluorescence ratio was 1.11 ± 0.061.
In the case of GGTAGTGAGT, the switch fluorescence ratio is reported as 0.9765 ± 0.0078.
With TCTGGTTTTT the switch fluorescence ratio was 1.01 ± 0.015.
In the case of CGAGTTGTTT, the switch fluorescence ratio is reported as 1 ± 0.03.
CTTTGTTACG showed a switch fluorescence ratio of 1.048 ± 0.0015.
With GTAGTTACTT the switch fluorescence ratio was 0.995 ± 0.051.
Sequence CTACACGCTG has a switch fluorescence ratio of 1.01 ± 0.1.
Sequence ATTGAAATTT has a switch fluorescence ratio of 1.05 ± 0.093.
In the case of CCAATGATAA, the switch fluorescence ratio is reported as 1.014 ± 0.0034.
Work on GGAGTTAATC yielded a switch fluorescence ratio of 1.04 ± 0.037.
Work on TCATAGTACG yielded a switch fluorescence ratio of 1.02 ± 0.043.
Work on ATCGTCAGAA yielded a switch fluorescence ratio of 0.969 ± 0.0068.
GGAAATATTA was tested, and the switch fluorescence ratio was 1.04 ± 0.04.
Sequence TGGCTCTCAT has a switch fluorescence ratio of 1.02 ± 0.017.
Work on GCAAGTTAGA yielded a switch fluorescence ratio of 1 ± 0.017.
With ATAGGTTTTA the switch fluorescence ratio was 0.976 ± 0.017.
In the case of AATTGG, the switch fluorescence ratio is reported as 0.992 ± 0.018.
ATGCGGTCTG showed a switch fluorescence ratio of 1.04 ± 0.028.
In the case of AGTTAGTATG, the switch fluorescence ratio is reported as 0.979 ± 0.032.
For ATGTTAGTTG, the switch fluorescence ratio was 0.965 ± 0.041.
For TTTGGTGTCC, the switch fluorescence ratio was 0.984 ± 0.017.
Work on ATTCTGGTGC yielded a switch fluorescence ratio of 1.12 ± 0.025.
GGGTGAGCTT gave a switch fluorescence ratio of 1.01 ± 0.029.
Sequence GGGGGTGGGC has a switch fluorescence ratio of 1.03 ± 0.035.
TTTGGCCGGT showed a switch fluorescence ratio of 1.04 ± 0.056.
TTCAACGACG gave a switch fluorescence ratio of 0.988 ± 0.082.
In the case of TTGAACTTGT, the switch fluorescence ratio is reported as 1.03 ± 0.028.
With TTTTTCCGCA the switch fluorescence ratio was 2.18 ± 0.83.
Sequence GACTGAGAAG has a switch fluorescence ratio of 0.945 ± 0.011.
With CGTTACGCTT the switch fluorescence ratio was 1.05 ± 0.066.
AAGGGTTGGC showed a switch fluorescence ratio of 0.983 ± 0.094.
Work on TTGCCGGCTA yielded a switch fluorescence ratio of 1.038 ± 0.0057.
CGAACAGCGC showed a switch fluorescence ratio of 1.01 ± 0.019.
For GGGGCTGCAG, the switch fluorescence ratio was 1.09 ± 0.11.
Work on GTCGGGGTTG yielded a switch fluorescence ratio of 0.971 ± 0.014.
TTAGGGTTTC was tested, and the switch fluorescence ratio was 0.978 ± 0.013.
GCCGCATTTG was tested, and the switch fluorescence ratio was 1.147 ± 0.011.
Work on ACGTTGCAGA yielded a switch fluorescence ratio of 1.006 ± 0.006.
In the case of GCTGGTAATG, the switch fluorescence ratio is reported as 1.01 ± 0.021.
